± gives the standard deviation of the averaged measurements.
Columns and labels:
[1] = system: Saccharomyces cerevisiae; assay: protein stability index of tFT-peptide fusion in deletion strain of DAS1 (PSI (0-1 scale)); higher = more stable (slower turnover)
Description: (§1)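 MPS profiling in S. cerevisiae of two library types built from selected 12-aa C-degron peptides (IN1, IN2, LN1, LN3, VN2, R1-R5, W1-W3, Atg1 and Rpa12 C-termini): saturation mutagenesis libraries and C-terminal +1 capping libraries (13 aa). Each peptide is fused to the C-terminus of a sfGFP-mCherry timer, after a GGGS linker. Cells are FACS-sorted into 8 mCherry/sfGFP bins and sequenced. PSI runs from 0 (unstable) to 1 (stable), measured once in wild type and in the das1Δ or doa10Δ background.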

[2] = system: Saccharomyces cerevisiae; assay: protein stability index of tFT-peptide fusion in wild type (PSI (0-1 scale)); higher = more stable (slower turnover); details: genetic background: wild type
Description: as §1

[3] = system: Saccharomyces cerevisiae; assay: protein stability index of tFT-peptide fusion (C-terminal peptide) (PSI (0-1 scale)); higher = more stable (slower turnover); details: temperature: 30 C
Description: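 MPS profiling in S. cerevisiae of the yeast C-terminome library: the last 12 aa of each annotated ORF are fused to the C-terminus of a sfGFP-mCherry timer, after a GGGS linker. Cells are FACS-sorted into 8 mCherry/sfGFP bins and deep-sequenced. PSI runs from 0 (unstable) to 1 (stable); wild type and das1Δ backgrounds, two technical replicates each.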

[4] = genetic background: das1 deletion
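For protein stability index of tFT-peptide fusion in deletion strain of DAS1 in this document: PSI is a weighted mean of each variant's read distribution over the sorted stability bins, computed only for variants having over 10 reads in total.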
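For protein stability index of tFT-peptide fusion in wild type in this document: PSI derived as read-weighted mean over the 8 sorting bins, only variants exceeding 10 total reads kept, mCherry placed adjacent to the peptide and sfGFP distal.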

Sequence | protein stability index [1] | protein stability index [2] | protein stability index [3, 4] | protein stability index ([3]; genetic background: wild type)
ACWRVGLWRGAS | 0.694 | 0.445 | – | –
AGWRVGLWRGAS | 0.722 | 0.424 | – | –
ALIQPLPVQFLN | 0.649 | 0.101 | – | –
ALWRVGLWRGAS | 0.707 | 0.464 | – | –
ARGAVGGWRLVG | 0.653 | 0.172 | – | –
ARWIVGLWRGAS | 0.684 | 0.398 | – | –
ARWMVGLWRGAS | 0.709 | 0.449 | – | –
ARWRAGLWRGAS | 0.7 | 0.653 | – | –
ARWRIGLWRGAS | 0.671 | 0.327 | – | –
ARWRVALWRGAS | 0.671 | 0.254 | – | –
ARWRVCLWRGAS | 0.705 | 0.397 | – | –
ARWRVGLERGAS | 0.7 | 0.661 | – | –
ARWRVGLGRGAS | 0.679 | 0.456 | – | –
ARWRVGLKRGAS | 0.663 | 0.627 | – | –
ARWRVGLWFGAS | 0.666 | 0.626 | – | –
ARWRVGLWRFAS | 0.675 | 0.101 | – | –
ARWRVGLWRGAA | 0.675 | 0.17 | – | –
ARWRVGLWRGAI | 0.685 | 0.529 | – | –
ARWRVGLWRGASH | 0.685 | 0.66 | – | –
ARWRVGLWRGASM | 0.639 | 0.651 | – | –
ARWRVGLWRGASR | 0.676 | 0.663 | – | –
ARWRVGLWRGASW | 0.71 | 0.67 | – | –
ARWRVGLWRGPS | 0.69 | 0.672 | – | –
ARWRVGLWSGAS | 0.693 | 0.67 | – | –
ARWRVGLWTGAS | 0.677 | 0.664 | – | –
ARWRVGWWRGAS | 0.701 | 0.405 | – | –

Sequence | protein stability index [1] | protein stability index [2] | protein stability index [3, 4] | protein stability index ([3]; genetic background: wild type)
ARWRVWLWRGAS | 0.711 | 0.341 | – | –
ARWVVGLWRGAS | 0.694 | 0.39 | – | –
ARWYVGLWRGAS | 0.696 | 0.469 | – | –
CCSCGYKFRTNN | 0.681 | 0.226 | – | –
CSLAASFWRVVG | 0.69 | 0.125 | – | –
CTACGYKFRTNN | 0.676 | 0.259 | – | –
CTDCGYKFRTNN | 0.662 | 0.254 | – | –
CTHCGYKFRTNN | 0.709 | 0.264 | – | –
CTSCGGKFRTNN | 0.675 | 0.61 | – | –
CTSCGYAFRTNN | 0.697 | 0.226 | – | –
CTSCGYKFFTNN | 0.727 | 0.347 | – | –
CTSCGYKFNTNN | 0.722 | 0.42 | – | –
CTSCGYKFRFNN | 0.699 | 0.303 | – | –
CTSCGYKFRRNN | 0.703 | 0.49 | – | –
CTSCGYKFRTEN | 0.725 | 0.45 | – | –
CTSCGYKFRTIN | 0.698 | 0.148 | – | –
CTSCGYKFRTKN | 0.702 | 0.631 | – | –
CTSCGYKFRTNA | 0.697 | 0.266 | – | –
CTSCGYKFRTND | 0.695 | 0.7 | – | –
CTSCGYKFRTNN | 0.691 | 0.247 | – | –
CTSCGYKFRTNNF | 0.712 | 0.711 | – | –
CTSCGYKFRTNNG | 0.69 | 0.683 | – | –
CTSCGYKFRTNS | 0.697 | 0.465 | – | –
CTSCGYKFRTTN | 0.699 | 0.191 | – | –
CTSCGYKFRTYN | 0.696 | 0.31 | – | –
CTSCGYKLRTNN | 0.678 | 0.471 | – | –

Sequence | protein stability index [1] | protein stability index [2] | protein stability index [3, 4] | protein stability index ([3]; genetic background: wild type)
YEIEPDFDRLAV [SVP26 C-terminal 12 aa] | – | – | 0.691 ± 0.022 | 0.681 ± 0.021
YERERKLRGGKK [NOP14 C-terminal 12 aa] | – | – | 0.702 ± 0.027 | 0.692 ± 0.072
YEYHTEEDVMYA [YGR130C C-terminal 12 aa] | – | – | 0.703 ± 0.013 | 0.684 ± 0.044
YFNLFTDLSGSK [NEL1 C-terminal 12 aa] | – | – | 0.73 ± 0.012 | 0.72 ± 0.043
YGLLKFHSVFES [YMR209C C-terminal 12 aa] | – | – | 0.707 ± 0.0069 | 0.668 ± 0.054
YGNWSKTVADLN [BAT1 C-terminal 12 aa] | – | – | 0.692 ± 0.022 | 0.687 ± 0.022
YGRGETPKHAIE [DPH1 C-terminal 12 aa] | – | – | 0.692 ± 0.0084 | 0.713 ± 0.062
YKTEYPEWALRR [PUS9 C-terminal 12 aa] | – | – | 0.723 ± 0.01 | 0.717 ± 0.053
YLIKNPGYPIVF [OST6 C-terminal 12 aa] | – | – | 0.621 ± 0.0095 | 0.6361 ± 0.0047
YLISEKIIRKHL [MET14 C-terminal 12 aa] | – | – | 0.685 ± 0.017 | 0.602 ± 0.026
YLPRSKWFGILV [ALG14 C-terminal 12 aa] | – | – | 0.359 ± 0.02 | 0.165 ± 0.0058
YNPPDYEPEAKK [PHM7 C-terminal 12 aa] | – | – | 0.6998 ± 0.0052 | 0.639 ± 0.008
YPKFIKGHEEYF [BSC6 C-terminal 12 aa] | – | – | 0.702 ± 0.035 | 0.715 ± 0.0089
YRDDPNQKNYKD [MSS4 C-terminal 12 aa] | – | – | 0.6905 ± 0.0037 | 0.749 ± 0.081
YSINPDEIELDI [SYF1 C-terminal 12 aa] | – | – | 0.707 ± 0.025 | 0.698 ± 0.029
YSLLIHLSKKKS [YNR005C C-terminal 12 aa] | – | – | 0.668 ± 0.025 | 0.6119 ± 0.0036
YSSDSSTLHSKV [FIG1 C-terminal 12 aa] | – | – | 0.7 ± 0.021 | 0.6859 ± 0.0017
YSSRRWRLDTHD [RTC4 C-terminal 12 aa] | – | – | 0.763 ± 0.034 | 0.752 ± 0.058
YSWMQPESGWNP [YER188W C-terminal 12 aa] | – | – | 0.738 ± 0.011 | 0.722 ± 0.032
YSYSSPKYTFPC [YKL147C C-terminal 12 aa] | – | – | 0.6967 ± 0.0022 | 0.669 ± 0.063
YTTVLSSQSSKL [PEX8 C-terminal 12 aa] | – | – | 0.783 ± 0.013 | 0.855 ± 0.091
YVIHLDQIDRDL [YLR269C C-terminal 12 aa] | – | – | 0.714 ± 0.0093 | 0.699 ± 0.028
YVTYSGENTFGR [ATG8 C-terminal 12 aa] | – | – | 0.703 ± 0.025 | 0.691 ± 0.021
YVVKGWCDSRFL [GIS3 C-terminal 12 aa] | – | – | 0.72 ± 0.01 | 0.701 ± 0.016
YYYKNSYWPSHI [VPS36 C-terminal 12 aa] | – | – | 0.6935 ± 0.0058 | 0.701 ± 0.027

Reference: the supplement of paper PMC10724198
